{
  "source": "paper PMC12458545",
  "about": "“Repurposing a Detrimental Antibody Epitope as Targeted Therapeutics for Sepsis and Rheumatoid Arthritis” (Research Square, 2025)",
  "key": {"CLP-induced sepsis [1]": {"system": "CLP-induced sepsis", "test": "CLP sepsis survival", "type": "in vivo, Balb/C mice", "experimental": "Experimental sepsis was induced in Balb/C mice via cecal ligation and puncture (CLP) as previously described,[30],[37]. […] Briefly, mice were anesthetized intramuscularly with ketamine (75 mg/kg, Henry Schein Animal Health, Dublin, Ohio) and xylazine (10 mg/kg, Sigma-Aldrich) before a midline abdominal incision was made in the lower left abdomen. The cecum was ligated with a 4–0 silk suture at 50% of its length from the distal end, and punctured twice with a 21-gauge needle to induce moderate to severe sepsis. The cecum was returned to the abdominal cavity, and the incision was closed in layers. Approximately 30 min post-CLP, animals received imipenem/cilastatin (0.5 mg/mouse, Primaxin, Merck & Co., Inc.) and 1.0 mL of sterile saline for fluid resuscitation. Animals were randomized to control vehicle and experimental groups, administered P2 or P2–1 intraperitoneally at indicated doses and time points, and monitored for survival rates. To elucidate P2–1’s protective mechanisms, a separate group of Balb/C mice underwent CLP and received P2–1 (1.0 mg/kg) at 2 h and 20 h post-CLP. At 24 h post-CLP, animals were euthanized to collect blood and measure serum cytokines and chemokines using murine Cytokine Antibody Arrays.\nAll data were first assessed for normality using the Shapiro-Wilk test before applying the appropriate statistical analyses. All data are presented as mean ± standard error of the mean (SEM) unless otherwise specified. For comparison among multiple groups with non-normal (skewed) distribution, the Kruskal-Wallis ANOVA test followed by Dunn’s post-hoc test was used to evaluate statistical differences. Survival curves were analyzed using Kaplan-Meier method and compared using the nonparametric log-rank (Mantel-Cox) test. Statistical significance was defined as a P value less than 0.05."}, "water solubility": {"test": "water solubility", "type": "physicochemical"}, "human PBMCs [2]": {"system": "human PBMCs", "conditions": "TN; cited from earlier work", "from_the_text": "To validate these RNA-seq findings, we quantified HMGB1-induced cytokine/chemokine protein levels using Cytokine Antibody Arrays."}, "CLP-induced sepsis [3]": {"system": "CLP-induced sepsis", "conditions": "anti-TN mAbs; mice; cited from earlier work"}, "[4]": {"molecular_target": "T1, P5 peptide of tetranectin (Homo sapiens, UniProt P05452)", "T1 construct": "synthetic peptide from the C-terminal portion (CRD) of human tetranectin; S1A, S1B; source: synthetic peptide", "T1 chain": "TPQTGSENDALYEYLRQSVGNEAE", "test": "far-Western, overlay or dot blot; synthetic TN peptides P1-P10 spotted (0.1 μg in 2.5 μl) on nitrocellulose, blocked with 5% milk in PBS-T; mAb8 or mAb9 at 1.0 μg/mL; HRP goat anti-mouse IgG, chemiluminescence", "conditions": "both partners purified"}, "TN peptides (P1-P10)": {"system": "TN peptides (P1-P10)", "test": "dot blot epitope mapping of anti-TN mAbs with TN peptides P1-P10", "type": "binding, human", "conditions": "peptides 0.1 μg in 2.5 μl on nitrocellulose; mAb 1.0 μg/mL; chemiluminescence", "experimental": "A library of ten synthetic peptides (P1-P10, fig. S1B) corresponding to C-terminus portion of TN protein (fig. S1A) were spotted (0.1 μg in 2.5 μl) onto nitrocellulose membranes (Thermo Scientific, Cat No. 88013). Membranes were blocked with 5% milk in PBS-T (PBS with 0.1% Tween-20) and then incubated with anti-TN monoclonal antibodies (mAb8 or mAb9, 1.0 μg/mL). After washing, membranes were incubated with HRP-conjugated goat anti-mouse IgG (Jackson ImmunoResearch), and signals were detected using chemiluminescence as described,[30]."}, "human PBMCs [5]": {"system": "human PBMCs", "test": "HMGB1-induced pCTS-L secretion, Western blot", "type": "cell-based", "conditions": "HMGB1 alone", "experimental": "(§1) Human blood was purchased from the New York Blood Center (Long Island City, NY, USA), and PBMCs were isolated by density gradient centrifugation through Ficoll (Ficoll-Paque PLUS) as previously described,[30]. PBMCs were cultured in RPMI-1640 supplemented with 10% human serum, 2 mM L-glutamine, 100 U/mL penicillin, and 100 μg/mL streptomycin (all from Invitrogen). For experiments, PBMCs were stimulated with recombinant human HMGB1 (0.5 or 2.0 μg/ml) for 16 hours, either alone or in combination with P2–1 at 5.0 or 10.0 μg/ml. Cell-free supernatants were collected for analysis of cytokines/chemokines levels by Cytokine Antibody Arrays, or pCTS-L levels by Western blotting analysis as described.\nCell-conditioned medium from human PBMC cultures was collected, and concentrated using Amicon Ultra Centrifugal Filters. Equal volumes of conditioned medium, representing equivalent numbers of cells, were resolved on sodium dodecyl sulfate (SDS)-polyacrylamide gels and transferred to polyvinylidene difluoride (PVDF) membranes. After blocking with 5% nonfat milk in Tris-buffered saline with 0.1% Tween 20 (TBST), membranes were probed with a home-made primary monoclonal antibody against pCTS-L (e.g., mAb2, 1:1000) overnight as previously described. After washing, membranes were incubated with a horseradish peroxidase-conjugated secondary antibody. Protein bands were visualized using enhanced chemiluminescence (ECL) substrate (Pierce) and detected with a chemiluminescence imaging system (e.g., Bio-Rad ChemiDoc MP). The relative levels of specific proteins were determined using the UN-SCAN-IT Gel Analysis Software Version 7.1 (Silk Scientific Inc., Orem, UT, USA) and expressed in arbitrary units (AU)."}, "human PBMCs [6]": {"system": "human PBMCs", "test": "HMGB1-induced cytokine/chemokine secretion, Cytokine Antibody Arrays", "type": "cell-based", "conditions": "HMGB1 0.5 or 2.0 μg/ml alone, 16 h", "experimental": "as §1\nLevels of cytokines and chemokines in mouse serum and joint tissue lysates, or human PBMC culture supernatants were determined using murine or human Cytokine Antibody Arrays (e.g., Cat. No. M0308003 or Cat. No. AAH-CYT-3–4, RayBiotech Inc., Norcross, GA, USA) as previously described,[30],[86],[87]. Serum samples were collected from mice at 24 h post-CLP. The soft tissue of the hindpaw and ankle joints was carefully collected using a previously described protocol. Briefly, 0.5 g of fresh soft tissue was cut into 3 mm pieces, and mixed with 400 μL of a hypertonic solution (500 mL PBS with 4.5 g NaCl and 2× protease inhibitor cocktail) in a 10 mL syringe. Mechanical extrusion, involving 30 rapid back-and-forth movements of the plunger, was then performed. The expelled extracellular fluid was collected, immediately aliquoted, and stored at −20°C until analysis. Cell-conditioned medium was collected from PBMC cultures after 16 h of stimulation. Arrays were performed according to the manufacturer’s protocol, followed by chemiluminescent detection and densitometric quantification as previously described,[30]."}, "human PBMCs [7]": {"system": "human PBMCs", "test": "RNA-seq of HMGB1-stimulated PBMCs", "type": "cell-based", "conditions": "HMGB1 stimulation alone", "experimental": "as §1\nTotal RNA was isolated from human PBMCs stimulated with HMGB1 in the absence or presence of P2–1 (5.0 or 10.0 μg/ml) using the RNeasy Mini Kit (Qiagen) according to the manufacturer’s instructions. RNA quantity and quality were assessed using a NanoDrop spectrophotometer and an Agilent Bioanalyzer. cDNA libraries were prepared using the TruSeq RNA Library Prep Kit v2 (Illumina) and sequenced on an Illumina NovaSeq 6000 platform to generate 100 bp paired-end reads. Raw sequencing reads were quality-checked using FastQC, trimmed with Trimmomatic, and aligned to the human reference genome (GRCh38) using HISAT2. Gene counts were quantified using StringTie and DESeq2 was used for differential gene expression analysis. Volcano plots and heatmaps were generated using ggplot2 and pheatmap packages in R, respectively. Genes with an adjusted P-value < 0.05 and a |log2-fold change| > 1 were considered differentially expressed."}},
  "note": "Entries after “also recorded” stand apart in the source; their conditions may differ.",
  "data": [
    {"molecule": "55-KVHMKCFLAFTQTKTF-70 [P2]", "values": [
      {"measurement": "survival", "setting": "CLP-induced sepsis [1]; P2 5.0 mg/kg at 2 h and 24 h post-CLP, 5 mg/kg", "value": "significantly increased survival rates in both male and female mice; also recorded: significantly increased animal survival"},
      {"measurement": "animal survival (# of Survivors)", "setting": "CLP-induced sepsis [1]; P2 5.0 mg/kg i.p. at 2 h and 24 h post-CLP, male and female mice, P < 0.05 vs. vehicle", "value": 60, "unit": "%"},
      {"measurement": "water solubility", "setting": "water solubility", "value": "poor water solubility"}
    ]},
    {"molecule": "TN: full-length human tetranectin (residues 1-181) (protein, UniProt P05452 22-202, looked up) Tetranectin: EPPTQKPKKIVNAKKDVVNTKMFEELKSRLDTLAQEVALLKEQQALQTVCLKGTKVHMKCFLAFTQTKTFHEASEDCISRGGTLGTPQTGSENDALYEYLRQSVGNEAEIWLGLNDMAAEGTWVDMTGARIAYKNWETEITAQPDGGKTENCAVLSGAANGKWFDKRCRDQLPYICQFGIV", "values": [
      {"measurement": "HMGB1-induced cytokines (e.g., IL-6) and chemokines (e.g., MCP-1)", "setting": "human PBMCs [2]", "value": "did not affect HMGB1-induced cytokines (e.g., IL-6) and chemokines (e.g., MCP-1)"}
    ]},
    {"molecule": "anti-tetranectin monoclonal antibody mAb8 (antibody, V domains shown, mouse monoclonal antibody; also called protective anti-TN mAb; source: generated in Balb/C and C57BL/6 mice as previously described [6,30]; hybridoma) VH: DVNLVESGGGLVKLGGSLKLSCADSGFTFSSYYMSWVRQTPEKRLELVAAINSNGGRTYYPDTVKGRFTISRDNAKNTLYLQMSSLKSEDTALYYCARQGKNGLDYWGQGTSVTVSS VL: DIQMTQTTSSLSASLGDRVTISCRASQDISNHLNWYQQKPDGTIKLLIYYTSRLHSGVPSRFSGSGSGTDFSLSISNLEQEDIATYFCQQGKTLPPTFGGGTKLEIK", "values": [
      {"measurement": "effect on septic survival/lethality", "setting": "CLP-induced sepsis [3]", "value": "protected mice against sepsis"},
      {"measurement": "binding result", "setting": "[4]", "value": "binds"},
      {"measurement": "TN peptide bound in dot blot", "setting": "TN peptides (P1-P10)", "value": "targeted P5; also recorded: binds P5"}
    ]},
    {"molecule": "HMGB1: recombinant human HMGB1 expressed in E. coli; PBMC stimulus and SPR target (protein) MGKGDPKKPRGKMSSYAFFVQTCREEHKKKHPDASVNFSEFSKKCSERWKTMSAKEKGKFEDMAKADKARYEREMKTYIPPKGETKKKFKDPNAPKRPPSAFFLFCSEYRPKIKGEHPGLSIGDVAKKLGEMWNNTAADDKQPYEKKAAKLKEKYEKDIAAYRAKGKPDAAKKGVVKAEKSKKKKEEEEDEEDEEDEEEEEDEEDEDEEEDDDDE", "values": [
      {"measurement": "pCTS-L expression and secretion", "setting": "human PBMCs [5]", "value": "induced pCTS-L expression and secretion in human immune cells"},
      {"measurement": "cytokine and chemokine protein levels (e.g., TNF, IL-6, IL-10, CXCL5, CXCL1, CXCL8, CCL2, CCL7)", "setting": "human PBMCs [6]", "value": "significantly increased protein levels of various cytokines"},
      {"measurement": "gene expression of inflammatory cytokines and chemokines", "setting": "human PBMCs [7]", "value": "profoundly upregulated many inflammatory cytokines"}
    ]}
  ]
}
